The source of these data is patent publication US20170056486A1 (IMMATICS BIOTECHNOLOGIES, published 2017).

In the assay the target is T1, HLA-A*02 (human).
T1 construct: Peptide-receptive MHC monomer made by UV cleavage of a UV-sensitive ligand and captured on streptavidin plates; also called HLA-A*02 MHC class I molecule; peptide-receptive MHC
The assay is described as follows: UV-exchange ELISA (anti-b2m); yield 50%-75%. From the text:
Candidate peptides for T cell based therapies according to the present invention were further tested for their MHC binding capacity (affinity). The individual peptide-MHC complexes were produced by UV-ligand exchange, where a UV-sensitive peptide is cleaved upon UV-irradiation, and exchanged with the peptide of interest as analyzed. Only peptide candidates that can effectively bind and stabilize the peptide-receptive MHC molecules prevent dissociation of the MHC complexes. To determine the yield of the exchange reaction, an ELISA was performed based on the detection of the light chain (β2m) of stabilized MHC complexes. The assay was performed as generally described in Rodenko et al. (Rodenko et al., 2006).
96 well MAXISorp plates (NUNC) were coated over night with 2 ug/ml streptavidin in PBS at room temperature, washed 4× and blocked for 1 h at 37° C. in 2% BSA containing blocking buffer. […] Peptide-MHC monomers of the UV-exchange reaction were diluted 100 fold in blocking buffer. Samples were incubated for 1 h at 37° C., washed four times, incubated with 2 ug/ml HRP conjugated anti-β2m for 1 h at 37° C., washed again and detected with TMB solution that is stopped with […]. Absorption was measured at 450 nm.
With ALMAVVSGL, the peptide exchange yield is 50 to 75%.
Regarding TLYSMDLMKV, the peptide exchange yield was in the range of 50 to 75%.
The value for ALVSGGVAQA was 50 to 75%.
ILDNVKNLL: the peptide exchange yield was in the range of 50 to 75%.
The same measure for YLTEVFLHVV: 50 to 75%; for FLDPAQRDL: 50 to 75%.
As to YVLNEEDLQKV, the peptide exchange yield lay within 50 to 75%.
The molecule SLLPLVWKI returned a peptide exchange yield of 50 to 75%.
The same measure for TLLPTVLTL: 50 to 75%.
The same measure for VLRDNIQGI: 50 to 75%; for ELAEIVFKV: 50 to 75%.
As to VLSPFILTL, the peptide exchange yield was in the range of 50 to 75%.
The same measure for STLDGSLHAV: 50 to 75%.
Regarding FINPKGNWLL, the peptide exchange yield lay in the range of 50 to 75%.
The value for SLLALPQDLQA was 50 to 75%.
In the case of KLGPFLLNA, the peptide exchange yield was in the range of 50 to 75%.
As to ILLNTEDLASL, the peptide exchange yield lay within 50 to 75%.
Turning to KVDGVVIQL, the peptide exchange yield was in the range of 50 to 75%.
The same measure for ILADEAFFSV: 50 to 75%.
In turn, ELLSSIFFL gave a peptide exchange yield of 50 to 75%.
The same measure for LLWAGPVTA: 50 to 75%.
The value for VLGPTPELV was 50 to 75%; that for TLCNKTFTA was 50 to 75%; that for SLAKHGIVAL was 50 to 75%.
The value for SIGDIFLKY was 50 to 75%; that for KMQEDLVTL was 50 to 75%.
Consider YLVAHNLLL, for which the peptide exchange yield lay in the range of 50 to 75%.
ILHEHHIFL registered a peptide exchange yield of 50 to 75%.
The value for SLWFKPEEL was 50 to 75%.
The value for GTFLEGVAK was 50 to 75%.
In turn, AAAAKVPEV showed a peptide exchange yield of 50 to 75%.
The value for ALTKILAEL was 50 to 75%; that for TLDEYLTYL was 50 to 75%.
The same measure for GMIGFQVLL: 50 to 75%; for GLITVDIAL: 50 to 75%.
The value for KVFGDLDQV was 50 to 75%; that for AIWKELISL was 50 to 75%; that for ELLEYLPQL was 50 to 75%.
In turn, ILLDESNFNHFL had a peptide exchange yield of 50 to 75%.
The same measure for ALINDILGELVKL: 50 to 75%; for ALYGKLLKL: 50 to 75%.
The value for SLLSHVIVA was 50 to 75%; that for FLWNGEDSAL was 50 to 75%.
On to ILSVVNSQL (also called KIAA0226L-002), for which the peptide exchange yield lay within 50 to 75%.
The value for SLFGQEVYC was 50 to 75%; that for SLLTQPIFL was 50 to 75%; that for KLDGICWQV was 50 to 75%.
The value for FLEEEITRV was 50 to 75%.
For LLLDGDFTL, the peptide exchange yield is 50 to 75%.
The same measure for LLWGHPRVA: 50 to 75%.
LLDESKLTL came in with a peptide exchange yield of 50 to 75%.
Take IVLSTIASV: the peptide exchange yield lay in the range of 50 to 75%.
The value for FVLPLVVTL was 50 to 75%; that for SLFNQEVQI was 50 to 75%; that for LLLPLLPPLSPSLG was 50 to 75%.
The value for GLFSQHFNL (also called DNMT3B-001) was 50 to 75%; that for TLLGKQVTL was 50 to 75%; that for FITDFYTTV was 50 to 75%.
The value for GLYQAQVNL was 50 to 75%; that for FLWPKEVEL was 50 to 75%.
Take ALDGHLYAI: the peptide exchange yield was in the range of 50 to 75%.
The value for GIYDGILHSI was 50 to 75%.
